Experiments:
[1] = target: mouse F4/80 receptor expressed on macrophages (RAW 264.7 cells) (mouse) (UniProt Q61549); assay: cell-based or functional assay
[2] = target: mouse F4/80 receptor expressed on macrophages (RAW 264.7 cells) (mouse) (UniProt Q61549); assay: SPR (BI-2000), Fab'-covered NPs on a carboxydextran gold chip, RAW 264.7 cells injected at 5k cells/mL
[3] = target: mouse F4/80 receptor expressed on macrophages (RAW 264.7 cells) (mouse) (UniProt Q61549); assay: SPR (BI-2000), Fab'-covered NPs on a carboxydextran gold chip, RAW 264.7 cells injected at 10k cells/mL
[4] = target: mouse F4/80 receptor expressed on macrophages (RAW 264.7 cells) (mouse) (UniProt Q61549); assay: SPR (BI-2000), Fab'-covered NPs on a carboxydextran gold chip, RAW 264.7 cells injected at 2.5k cells/mL
[5] = target: mouse F4/80 receptor expressed on macrophages (RAW 264.7 cells) (mouse) (UniProt Q61549); assay: SPR (BI-2000), Fab'-covered NPs on a carboxydextran gold chip, RAW 264.7 cells injected at 7.5k cells/mL
[6] = target: mouse F4/80 receptor expressed on macrophages (RAW 264.7 cells) (mouse) (UniProt Q61549); assay: SPR, antibody-covered NPs coated on a gold chip, Raw 264.7 cells injected

UniProt Q61549, sequence (Q61549 28-931): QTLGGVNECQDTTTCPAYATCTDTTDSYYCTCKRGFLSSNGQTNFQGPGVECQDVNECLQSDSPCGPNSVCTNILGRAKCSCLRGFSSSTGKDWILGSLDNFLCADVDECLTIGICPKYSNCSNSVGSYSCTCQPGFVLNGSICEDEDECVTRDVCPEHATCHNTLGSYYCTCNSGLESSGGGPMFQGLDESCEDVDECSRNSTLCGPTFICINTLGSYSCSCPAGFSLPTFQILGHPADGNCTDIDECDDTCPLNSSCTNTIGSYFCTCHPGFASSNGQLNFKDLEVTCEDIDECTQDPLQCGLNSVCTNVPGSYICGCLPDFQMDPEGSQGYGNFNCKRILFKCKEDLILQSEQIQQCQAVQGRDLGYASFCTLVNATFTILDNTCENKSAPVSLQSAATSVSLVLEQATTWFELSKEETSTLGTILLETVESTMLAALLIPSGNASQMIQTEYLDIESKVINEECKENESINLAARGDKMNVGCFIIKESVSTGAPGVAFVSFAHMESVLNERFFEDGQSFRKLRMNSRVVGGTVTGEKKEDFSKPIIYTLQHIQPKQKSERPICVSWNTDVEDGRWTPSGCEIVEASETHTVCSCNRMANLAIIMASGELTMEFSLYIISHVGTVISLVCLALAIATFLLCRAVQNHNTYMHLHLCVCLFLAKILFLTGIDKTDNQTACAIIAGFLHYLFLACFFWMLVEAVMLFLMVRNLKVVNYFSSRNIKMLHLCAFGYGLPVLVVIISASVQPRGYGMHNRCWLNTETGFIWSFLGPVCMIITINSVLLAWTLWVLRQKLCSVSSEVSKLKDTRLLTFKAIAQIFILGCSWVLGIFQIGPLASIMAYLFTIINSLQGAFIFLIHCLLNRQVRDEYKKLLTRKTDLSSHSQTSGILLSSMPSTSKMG

Row | average fluorescent intensity per unit of surface area of RAW 264.7 cells exposed to NPs loaded with FITC-tagged siRNA (15 minutes, 500 ug/mL); non-coated NPs gave 10279 AU/um^2 [1] | percent of colonic MPs (CD11c(-)CD11b(+)F4/80(+)) with positive FITC signals by flow cytometry after gavage of DSS-treated mice with NPs loaded with FITC-tagged siRNA; non-coated NPs gave 19% [1] | resonance angle deviation [2] | resonance angle deviation [3] | resonance angle deviation [4] | resonance angle deviation [5] | binding coefficient [6] | Substance
1 | 51300 AU/µm^2 | 28% | 17 mDeg | 42 mDeg | 13 mDeg | 33 mDeg | – | Fab' fragment of the F4/80 antibody covalently attached to PLA-PEG nanoparticles
2 | – | – | – | – | – | – | 50 | mouse F4/80 antibody grafted onto maleimide-polyethyleneglycol-poly(lactic acid) nanoparticles
